In a protein production outcome set (Wang et al. 2014):

Assay: label from the status in PepcDB records
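Note: failed if final PepcDB status was selected cloned or expressed and not failed if soluble or beyond.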

Row | Sequence | protein production
1 | MSTPSPALFFNTVNAYQRSAAIKAAVELNVFTAISQGIESSQSLAQKCQTSERGMRMLCDYLVIIGFMTKQAEGYRLTSDSAMFLDRQSKFYVGDAIEFLLSPMITNGFNDLTAAVLKGGTAISSEGTLSPEHPVWVQFAKAMSPMMANPAQLIAQLVNENKIEPLKVLDISASHGLFGIAVAQHNPNAEIFGVDWASVLEVAKENARIQGVASRYHTIAGSAFEVDYGNDYDLVLLPNFLHHFDVATCEQLLRKIKTALAVEGKVIVFDFIPNSDRITPPDAAAFSLVMLATTPNGDAYTFAEYESMFSNAGFSHSQLHSLPTTQQQVIVAYK | not failed
2 | MKFSVIIPVYNASKFIDYCVESVLSQSYSDIEVILINDGSTDKSGEICEGFARKDNRVKVYHQENQGAAVARNHGIRKATGDYLLFPDSDDYYASSLGFEEINNQLEETKADVLIHDSFVERGNGTPDDLHSSLLREEVLKLEKIEFIEYLIKKDKLTRSAWTKVISRSFLSKNNILFPTVRQTEDTGFTAELVRLGNSFDWYEKQFYAYVKHDESVTAKRLPESIIHDSFSVIKTAVINGELIKDSRYREAYYSYLAYPYVVLIGQTKEAINRGVIKENTILNDLKQYSFLMKYNLNPKLKVIKHLYKLFGYLMIVFLLSVMMELTYRKQGV | failed
3 | MDTAKTKPFDEMFLQDEVIRPIYAEYAAWLQDVPHQQLESKRQEAELLFRRVGITFNVYGEDAGAERLIPFDVVPRILSASEWARLSDGAIQRVKALNMFLHDVYHDQEIIKAGIVPSSILANAQYRPEMFGVDVPGGVYAHIAGVDLVRTGENDFYVLEDNLRTPSGVSYMLENRKMMMRLFPELFRRYPVAPVEHYPQVLLNNLRAVAQAGVHEPTVVLLTPGAYNSAYFEHAFIAQQMGIELVEGQDLFVRNNAVYMRTTEGPKRVDVIYRRIDDDFIDPLSFRPDSMLGVPGLLSVYRNGGVTLANAVGTGVADDKDTYIYVPEMIRFYLGEEPILSNVPTYQLSKADDLKYVLDNLAELVVKEVQGSGGYGMLVGPAASKQELEDFRQRILANPANYIAQPTLALSTCPTLVETGIAPRHVDLRPFVLSGKTVSLVPGALCRVALREGSLVVNSSQGGGTKDTWILKD | not failed
4 | MTTSATSGTGPTANSMRRALKRARDGVALDVTEAAVLLQARGEDLDDLTASAARVRDAGLEAAGRAGVITYSKSVFIPLTRLCRDKCHYCTFVTVPGKLRRAGHGMFMSPDEVLDIARKGAALGCKEALITLGDKPEDRWPEAREWLDAHGYDDTIAYVRAISIRILEETGLLPHLNPGVMSWTDFQRLKPVAPSMGMMLETTATRLWSEPGGPHHGSPDKEPAVRLRVLEDAGRSSVPFTSGILIGIGETYEERAESLFALRKISRAYHGIQELIIQNFRAKPDTAMRGMPDAELDELIATVAVARHIMGPRACLQAPPNLVDSEYGRLIGAGIDDWGGVSPLTIDHVNPERPWPQIDLLREQSAQAGFELRERLCVYPEFVQRGEPWLDPRLLPHVRALADPASGLAHADATVEGHPWQEPEEAFVAQGRTDLHHSIDTEGRTGDRRDDFDVVYGDWEALREAAAPGMVPERIDTDVRQALATAANDPTRLTDAEALALLHADGPALDALTRIADDVRKAAVGDDVTYIVTRNINFTNVCYTGCRFCAFAQRRTDADAYTLSLEQVADRAQQAWDVGAVEVCMQGGIHPDLPGTAYFDIAKAVKERVPGMHVHAFSPMEVVNGATRTGLSIREWLTAAKEAGLDSIPGTAAEILDDEVRWVLTKGKLPTATWIEVITTAHELGIRSSSTMMYGHVDQPRHWLGHFRTLARIQQQTGGFTEFVTLPFIHTNAPVYLAGIARPGPTTRDNRAVMAMARLLLHPHIPNIQTSWVKLGTEGAAEMLRSGANDLGGTLMEETISRMAGSSYGSYKSVKDLIAVAEAAGRPAKPRTTLYGEVPQERQRAAAASDGHLPELLPVLD | failed
5 | MYCRMEFNFFMNDVVQMARKEMVESGYDQLTTPEEVDEVLKEKGTVLVMVNSVCGCAGGIARPAAAYMKNYDKKPDRFVTVFAGQDKEATARAREYFKGYAPSSPSFALLKDGEIQMMVERHEIEGHEPIQVVQKLEKAFDQYCS | failed
6 | MDRNEVRHAWDSVSETYAERRDPTGSDAALLEDLLERLPEAPTVLDVGCGDGARTLANLPPRSVGLDFSRAGLDLAAETVPDSRLVQGDMGSLPVTTDSVDAITAYHAVFHVQRDQHPEVYREFARVLRPGGTVLMTLPSGQFETVRRGWMGGSMFFSAPGRRATLDQLADAGFTETETVTATDPLGSDSEFVFATLADALEHHHHHH | not failed
7 | MLTKSVAVITSTIGRPELERAIQSVQQQTYPCQHYVFVDGVQFAEQAKQILDKYPQVIVTYLPMNTGANGWSNSSINAIAPFLAKEDMICYLDDDNWYEPNHVETCLTCLMQNQLDYVYSYRNLINSVNNHFICRDTFESVGPNKALKLDISSNMLNIAGSIQLHNENHIDTNTYFLTRKVALEASQYWYSGRSNDNNVSNWLLFSAYKGICTKTYSVNYLFDPTTFFNTFYQMICQNTPLNSSEQDKIAILEALIRAISDSQASD | failed
8 | PTNIHKIHEVQKKLQEEVSIVLIDIADIIVNPKKENGYSRDLYTLNSLIDSSISETYDNINNTLLSDTRFFLEHMDIIKSQRDILENLYSYVSQLNSTPPQAHILSAFIHKIGYTEFEAETGNLLLEELKRLMISMKNQPLPVDRTEFENRAILFLCLTELKQFLVNRKHAQML | not failed
9 | MRKYEIMYIIRPGVEEEAQKALVERFAGVLTNNGAEIINTKEWGKRRLAYEINDLREGFYMILNVNANAEAINEFDRLAKINEDILRHIVVKEEEK | not failed
10 | MAQYQALYRQWRPRTFAEVVGQEHITRTLRNALRTGRLVHAYLFCGPRGTGKTSTAKILARAINCLAPREGEPCNECANCRRILAGNSLDVLEMDAASNRGIDEIRNLIEKIPLGPVEGRYKVYIIDEVHMLTQEAFNALLKTLEEPPAHAVFILATTEPRKVLPTILSRCQRFDFHPLTVQAIAGRLQEVAAANGVEIEPGALSLLSRKAAGGLRDALSLLDQILASGTRGPVTAGQVAVTLGTARLDTLLALTDALATGDGAGVLNLVDKALASGIEPRRLLEDLLDHTRNLLLLKVDPGAGSLTGLLPEEVEQVAAQARQFDHHRLLDLMERLQQGGAALRRSNQPRVILEMTLAGFLVAPGPSLEGLARRVAELEARLAALEGSAPSRTREKVATRNQGEGGRPPVAPGSRADAGGQERGNSGPLEAPGAGSPAGRARVINRSREFPQAAGRDRAGLAGPETATGLEPGSPASPGLELAVVQEHWPEVLAAARRESIQLQAFLREGEPVAIDGDTLTLAVKADFHRGMLEQPGNRQKVEKALAAVFGRPLKVVITSGKPSPPGDTGDTLTRLVNFFGADKVEIKD | failed
11 | MKYYPFSYYRSINAADLYENIKAYTVLDVREPFELIFGSIANSINIPISELREKWKILERDKKYAVICAHGNRSAAAVEFLSQLGLNIVDVEGGIQSWIEEGYPVVYGRESAEDLEHHHHHH | not failed
12 | VSKAVQYMAKRRIGALIVFEKETGLQDYIETGIAMDSNISQELLINVFIPNTPLHDGAMIIQGTKIAAAASYLPLSDSPKISKSLGTRHRAAVGISEVSDAFTVIVSEETGDISVTFDGKLRRDISNEIFEELLAEHWFGTRFQKKGVK | failed
13 | MVNDIKKTALAVVTALITAVSAQLSFKIGPVPYTMQNFGVMLSGFLLGPYYGLLSMAIYLALIAFSLPIAAGGGGLGVLIGPTAGFLYGFLISSFLAGVFRRAIWREGSRREVLMLWLSTLVASMPIYLLGFFVFYNFAMIDEKLLIRSESAVRAFNLSFSSPTMVIFAATVLIFLPQDFFVDHLLAVLVFRYVHRMLNERGVEVD | failed
14 | INSAIELMEHNSSLSISEIAQFTNTSTAYFSRIFKKTIGETPVCFYTKIKLKKVQKLLITTNLTLAEISEQTGFTDPFYLSKVFTTHLGCSPRTYRKN | failed
15 | MRGIAIIFIVLGHSIYNSGEGFPVLLENLLRGGTALFVFISGYFFHRIFYKDFDYGKFMKNKVQNVLYPFLFVSIVGLFCLSLRWVFMEHQSLEQVLLSIFYTVRNGYILYPHWYIPFIMAVFLFSPVFLWFIRCSQQMRWTLFVLSCVVAILLHRPIGNVNFIHSVVYYLPFYLIGILYSQDEHIVTRYGSILSALAGIFLVVSLVEQSYIVQHVGNYHKAPFEYNGIDWQFIQKLSLCVLVLNFCDWLSQRSRLPWLIETAEMSFAIFFIHPLFDMLFNTTATIFRYRFPPDSWVTSILFSFGIFLFLMVSSMMTARLIKKRLGNRSRLFIGW | failed
16 | MNAVLVAVAIMLLLSLLRVQVIVAIIVGALTGGLIGGLGISETINTFTTGLGNSAPIALSYAMLGGFAISLSKTGLPDAMIQTALKWIGNEQDTKKQVYSKILILFIILTMACFSQNVIPVHIAFIPILIPALLKVLNELRVDRRLVTCIITFGLITPYMWIPAGFGKIYHDVLQTNAAQSGLTFDVTLIPKAMTIPAIGMIIGLCVAVFITYRKPRTYETEQIHTTENEIVPYTKRSITFGLLSIIATLTVQLTTESMIFGALAGIIVLSVSGSLPLKEADAILTSGMRMMSFIGFVMIAAAGFGAVLRKTGHVESLVQTSAHIIGNNKPLAAFLMLVIGLLVTMGIGSSFSTIPILTTIFVPLCIQLGFSPMATIAIIGTAGALGDAGSPASDSTLGPTSGLNADGQHHHIWDTCVPTFLHYNIPLLIFGFIAAITL | failed
17 | MVKDKNDVGPKTVAILGAGGKMGARITRKIHDSAHHLAAIEIAPEGRDRLQGMGIPLTDGDGWIDEADVVVLALPDNIIEKVAEDIVPRVRPGTIVLILDAAAPYAGVMPERADITYFIGHPCHPPLFNDETDPAARTDYHGGIAKQAIVCALMQGPEEHYAIGADICETMWSPVTRTHRVTTEQLAILEPGLSEMVAMPFVETMVHAVDECADRYGIDRQAALDFMIGHLNVEIAMWFGYSPKVPSDAALRLMEFAKDIVVKEDWREALNPAKVKQAAELIAGK | not failed
18 | MGPMRTLTVAIDWILIILFVISIILLIYALVKKNKKMAKYAGIAAAIIFILLFIAMRFALTVKPGQ | failed
19 | MKINMHILGLLVVVGLFSLQSCDDESYDIEGSNQNYVYINVNRWTSTEYPQNTFVYEVLRTPIGSSLESGPEIVKVGVRSTKVASKDITVTLDIDNCASIGEFSSFPDGVKVTLDKKELVIPAGSMLSSDSVTIEIEDGKWSEFVNTSYLLPLKVTSVSNAALSETHSSAYLAVSTSFTNCVPGATSVEGTLISDRSAWTATNNGVDVGTTLFDGNTRTYPSQDASSTVIVNLNGVYQNITGIRLQYYSRNYSLSSAAVYTSETGGEDYEYQGNVTFSRATPQYIRFYGAVSARYVKLELLPYSSGYGIVLSEFDMYQNE | failed
20 | MAYDLWYWDGIPGRGEFVRLALEAGKIPYRDRAREPGEDMLDDMRRRRDTPPFAPPYLVADGMTIAQTANILLFLGVEHGLAPPDRAGRLWVNQLQLTIADLTAEAHDVHHPVAAGLYYEDQQDVALRRAADFRETRMPKFMQYFEQALDRPGGWLTDMGRWSYADLSLYHVVEGLLHAFPRRMRTLVHRYPRLMALHARVAELPELRGYLASDRRLPFGDGIFRHYPELDGA | not failed
21 | MDTLAYLHLAETYETSTTDESSPEIPWTKNQSSALMLVASFAMGSLNWCLPTVAALKKGHRNPQVASLQQKLRASGYFPQVATGYFGSVTEAAVKRFQQANGLKADGIVGAATLAALESSIGVSESSITDPQIATSKSSLKQGDISDRVMSLQEKLQADGYYQGAITGNFDAATQAAVIQFQQANRLVVDGIVGPQTSSVLASSTRKLAASLPQKTTLEPFLTQQPQNQVKISPQSAAPPSPSQKMRLIKTISGKISPKSVVYSGNGLFFAQNMMYNHTITVYDRNYELVKVIPDEVDLSKYGHSRFKGKYRGAPVEASFSHNGKYAWISNYQMYGPGFNNPGSDKCHPSQKTDKSFLYRINTETLKIDRVIPVGSVPKFVATSTDENLILVSNWCSWDLSVVDINQNQEIKRIKLGPYPRGIVVDPASETAYVAVMGSYNIAKVNLRDFSVQWLRNIGSSPRHLNIDPAGKYLYASLNGEGKIAKISLPQGNLVKKIATGNAPRSMVLSANGQTLYVVNYGEDTVSKVRTSDMKVLQKVKVEPDPIGITYDPQTREVWVACYSGNIMIFQD | failed
